Our source for the Kd values is PMC549569.

The series addresses αCP1-KH3 (third KH domain of poly(C)-binding protein 1, PCBP1/hnRNP E1) (UniProt Q15365 279-356). As to the kind of experiment: SPR.

αCP1-KH3 (third KH domain of poly(C)-binding protein 1, PCBP1/hnRNP E1), sequence (Q15365 279-356): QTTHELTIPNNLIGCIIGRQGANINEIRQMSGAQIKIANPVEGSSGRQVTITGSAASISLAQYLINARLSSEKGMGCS

What is called Kd is a measure of binding affinity in units of concentration. A higher Kd goes with weaker binding. CUCUCCUUUCUUUUUCUUCUUCCCUCCCUA (ssRNA) [AR mRNA 3'-UTR 30 nt UC-rich RNA (nt 3296-3325)] showed a Kd of 4.37 µM.
